# Experimental data published in patent publication US20030078221, “High affinity nucleic acid ligands of complement system proteins” (Gilead Sciences, Inc., published 2003).
# B1: C1q clone 23 (ssRNA)
# RNA: GGGAGGACGAUGCGGCACUCACCUUCAUAUUGGCCGCCAUCCCCAGGGUUGAGCCCAGACACAGCAGACGACUCGCCCGA
# modifications: 2'-NH2 pyrimidines
# B2: C6 (ssRNA)
# RNA: GGGAGGACGAUGCGGUCUCAUGCGUCGAGUGUGAGUUUACCUUCGUCAGACGACUCGCCCGA
# modifications: 2'-F pyrimidines
# How the values were obtained:
# Complement C1q = Complement C1q (UniProt P02745;P02746;P02747 P02745:23-245,P02746:28-253,P02747:29-245); assay: filter; MgPBS 37C; text states range 0.29-3.9 nM for best ligands; conditions: tags: Quidel; chain copies: 6
# Procedure: (§1) Individual cloned DNA was T7 transcribed with α-[³²P]-ATP and the full length [³²P]-2′-NH₂-RNA or 2′-F-RNA was gel-purified (as above). RNA was suspended at approximately 5,000 cpm per 30 μL sample (<10 pM), and aliquots were incubated with various concentrations of C1q, C3 or C5 in MgPBS for 10 minutes at 37° C. Samples were then filtered through nitrocellulose, the filters washed with buffer and dried under an infrared lamp, and counted with addition of scintillation fluid (Ecoscint A, National Diagnostics, Atlanta, Ga.). A background sample of RNA alone was run in parallel. […] Filters were washed and counted.
# Complement C5 [1] = molecular target: T1, Complement C5 (Homo sapiens, UniProt P01031;P01031 P01031:19-673,P01031:678-1676); assay: inhibition; inhibition of C5a release, zymosan-treated human serum; conditions: tags: Quidel
# Procedure: Nucleic Acid Ligand-C5 interaction that inhibits cleavage of C5 would prevent formation of the C5b and MAC assembly. […] For this experiment, dilutions of clone C6 were incubated with whole human serum in GVB⁺⁺ (veronal-buffered saline containing calcium, magnesium and 1% gelatin) plus addition of zymosan for 30 minutes at 37° C. The samples were then quenched with EDTA-buffer and spun, and supernatants were assayed for C5a by radioimrnmunoassay (RIA) (Wagner and Hugli (1984) Anal. Biochem. 136:75).
# Complement C5 [2] = molecular target: T1, Complement C5; assay: filter; MgPBS 37C; conditions: tags: Quidel
# Procedure: as §1
# Sequences were grouped according to homology and function.
# Complement C1q, sequence (P02745 23-245, chain 1 of 3): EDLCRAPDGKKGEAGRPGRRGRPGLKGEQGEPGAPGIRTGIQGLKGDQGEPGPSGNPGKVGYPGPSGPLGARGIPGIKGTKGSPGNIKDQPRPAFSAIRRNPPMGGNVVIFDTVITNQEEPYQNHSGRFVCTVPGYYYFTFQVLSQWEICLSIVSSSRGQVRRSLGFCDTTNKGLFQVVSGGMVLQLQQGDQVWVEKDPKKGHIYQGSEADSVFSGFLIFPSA
# Complement C1q, sequence (P02746 28-253, chain 2 of 3): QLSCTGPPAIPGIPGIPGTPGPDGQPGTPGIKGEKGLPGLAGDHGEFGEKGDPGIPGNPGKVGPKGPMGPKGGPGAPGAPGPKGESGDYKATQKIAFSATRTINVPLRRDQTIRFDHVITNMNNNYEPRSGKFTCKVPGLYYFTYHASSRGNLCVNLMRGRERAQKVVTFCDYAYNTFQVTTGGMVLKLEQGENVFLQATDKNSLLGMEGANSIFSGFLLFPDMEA
# Complement C1q, sequence (P02747 29-245, chain 3 of 3): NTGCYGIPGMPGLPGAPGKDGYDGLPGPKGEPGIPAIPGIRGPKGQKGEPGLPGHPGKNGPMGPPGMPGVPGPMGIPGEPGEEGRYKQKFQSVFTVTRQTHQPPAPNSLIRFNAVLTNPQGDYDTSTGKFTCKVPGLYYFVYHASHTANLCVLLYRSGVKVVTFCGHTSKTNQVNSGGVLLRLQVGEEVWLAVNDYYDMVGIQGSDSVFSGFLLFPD
Binder,Kd (Complement C1q),Ki (Complement C5 [1]),Kd (Complement C5 [2])
B1,23 nM,,
B2,,~100 nM,30 nM
